Results reported in US20240117029A1 (Hoffmann-La Roche, published 2024).

How the values were obtained:
[1] = biological target: T1, human CCL2 (MCP1) - P8A variant (human, UniProt P13500 24-99); assay: SPR Biacore T200, 37 C, antibody captured, CCL2 as analyte, 1:1 model
T1 construct: Entry is without signal peptide; P8A prevents dimer formation (pure monomer); made in-house; also called monomeric human CCL2; monomeric CCL2
Description: (§1) Antibody clone supernatants were diluted 1:2 in system buffer and were captured for 1 min at 5 μl/min. […] Analyte kinetics were performed at 30 μl/min. […] Analytes were injected at 90 nM highest concentration. The analyte contact time was 3 min and the dissociation time was 10 min. The Biaevaluation software V.3.0 was used according to the instructions of the manufacturer GEHC. A 1:1 binding model with RMAX local was applied to apparently estimate kinetic rates.

[2] = biological target: T2, human CCL2 (MCP1) - wild type (wt) (human, UniProt P13500 24-99); assay: as above
T2 construct: Entry is without signal peptide; Made in-house or bought from R&D Systems (279-MC), depending on the assay; monomer-dimer equilibrium; also called wt human CCL2; hCCL2
Description: as §1

[3] = biological target: T2, human CCL2 (MCP1) - wild type (wt); assay: SPR Biacore T200, 25 C, pH 5.9, antibody captured via anti-human Fc, 1:1 model
Description: (§2) An antibody capture system was established. […] The capture system was regenerated by an injection at 20 μl/min with HBS buffer (100 mM HEPES pH 7.4, 1.5 M NaCl, 0.05% (w/v) Tween 20), followed by a 1 min 15 sec injection with 10 mM NaOH and two 10 mM glycine buffer pH 2.5 injections for 1 min. Antibodies were captured were injected for 30 sec at 10 μl/min at 80 nM concentration diluted in the respective system buffer. […] The analyte contact time was 3 min and the dissociation time was 10 min. Analyte kinetics were performed at 50 μl/min.
(§3) The Biaevaluation software V.3.0 was used according to the instructions of the manufacturer GEHC. A 1:1 binding model with RMAX local was applied to determine kinetic rates.

[4] = biological target: T2, human CCL2 (MCP1) - wild type (wt); assay: SPR Biacore T200, 25 C, pH 8.3, antibody captured via anti-human Fc, 1:1 model
Description: as §2, §3

[5] = biological target: T2, human CCL2 (MCP1) - wild type (wt); assay: SPR Biacore T200, 25 C, pH 5.5, antibody captured via anti-human Fc, 1:1 model
Description: as §2, §3

[6] = biological target: T2, human CCL2 (MCP1) - wild type (wt); assay: SPR Biacore T200, 25 C, pH 7.9, antibody captured via anti-human Fc, 1:1 model
Description: as §2, §3

[7] = biological target: T2, human CCL2 (MCP1) - wild type (wt); assay: SPR Biacore T200, 25 C, pH 6.3, antibody captured via anti-human Fc, 1:1 model
Description: as §2, §3

[8] = biological target: T2, human CCL2 (MCP1) - wild type (wt); assay: SPR Biacore T200, 25 C, pH 6.7, antibody captured via anti-human Fc, 1:1 model
Description: as §2, §3

[9] = biological target: T2, human CCL2 (MCP1) - wild type (wt); assay: SPR Biacore T200, 25 C, pH 7.1, antibody captured via anti-human Fc, 1:1 model
Description: as §2, §3

[10] = biological target: T2, human CCL2 (MCP1) - wild type (wt); assay: SPR Biacore T200, 25 C, pH 7.4, antibody captured via anti-human Fc, 1:1 model
Description: as §2, §3

[11] = biological target: T2, human CCL2 (MCP1) - wild type (wt); assay: cell-based or functional assay
[12] = biological target: T2, human CCL2 (MCP1) - wild type (wt); assay: SPR, 25 C, pH 7.4, antibody captured via anti-human Fc on C1 chip, wt CCL2 as analyte, 1:1 model
Description: The sample and system buffer was PBS-T (10 mM phosphate buffered saline including 0.05% Tween20) pH 7.4. The flow cell was set to 25° C.—and the sample block set to 12° C.—and primed with running buffer twice. The bispecific antibody was captured by injecting a 2 μg/ml solution for 60 sec at a flow rate of 10 μl/min. Association was measured by injection of human CCL2 (wt) in various concentrations in solution for 150 sec at a flow rate of 30 μl/min starting with 30 nM in 1:10 dilutions. The dissociation phase was monitored for up to 1200 sec and triggered by switching from the sample solution to running buffer. […] Bulk refractive index differences were corrected by subtracting the response obtained from a goat anti human IgG Fc surface. Blank injections are also subtracted (=double referencing). For calculation of kinetic parameters, the Langmuir 1:1 model was used.

B1: ABN912 (antibody, human IgG1, V domains shown)
VH: EVQLVQSGGGLVQPGGSLRLSCAASGFTFSHYWMSWVRQAPGKGLEWLANIEQDGSEKYYVDSVKGRFTISRDNAKNSLYLQMNSLRAEDTAVYFCARDLEGLHGDGYFDLWGRGTLVTVSS
VL: AIQLTQSPSSLSASVGDRVILTCRASQGVSSALAWYQQKPGKAPKLLIYDASSLESGVPSRFSGSGSGPDFTLTISSLQPEDFATYFCQQFNSYPLTFGGGTKVEIK
notes: Generated as human IgG1 wild type and IgG1 PGLALA with kappa light chain; also called AB912; CCL2-0003
[1]
  T½: 0.417 h
[2]
  T½: 0.55 h
[3]
  t½-diss.: 0.0167 h
[4]
  t½-diss.: 0.583 h
[5]
  t½-diss.: 0.0005 h
[6]
  t½-diss.: 0.417 h
[7]
  t½-diss.: 0.05 h
[8]
  t½-diss.: 0.133 h
[9]
  t½-diss.: 0.333 h
[10]
  t½-diss.: 0.55 h

B2: Humanized 11K2 (antibody, human IgG1, V domains shown)
VH: QVQLVQSGAEVKKPGSSVKVSCKASGLTISDTYMHWVRQAPGQGLEWMGRIDPANGNTKFDPKFQGRVTITADTSTSTAYMELSSLRSEDTAVYYCARGVFGFFDYWGQGTTVTVSS
VL: DIQMTQSPSSLSASVGDRVTITCKATEDIYNRLAWYQQKPGKAPKLLISGATSLETGVPSRFSGSGSGTDYTLTISSLQPEDFATYYCQQFWSAPYTFGGGTKVEIK
notes: Generated as human IgG1 wild type and IgG1 PGLALA with kappa light chain; also called CCL2-0002; humanized 11k2 IgG1
[1]
  T½: 1.93 h
[2]
  T½: 1.97 h
[3]
  t½-diss.: 4.78 h
[4]
  t½-diss.: 19.2 h
[5]
  t½-diss.: 1.97 h
[6]
  t½-diss.: 2.75 h
[11]
  IC50, inhibition of THP-1 migration towards recombinant huCCL2: 0.7 µg/mL
[7]
  t½-diss.: 19.2 h
[8]
  t½-diss.: 4.87 h
[9]
  t½-diss.: 3.58 h
[10]
  t½-diss.: 2.72 h

B3: 1A4//2F6-PGLALA (bispecific antibody, V domains shown)
VH 1: QSLEESGGDLVKPGASLTLTCTASELDFYWICWVRQAPGKGLEWIACIGAGSSGSTYYASWAKGRFTVSKTSSTTVTLQMTSLTAADTATYFCARTGTEFTYYSLWGPGTLVTVSS
VL 1: ALVMTQTPSSVSAAVGGTVTINCQASQSVYNNNMAWYQQKPGQPPKLLIYTASSLASGVPSHFRGSGSGTQFTLTISDLESDDAATYYCAGYKSYSNDEYGFGGGTEVVVK
VH 2: QSLEESGGGLVQPEGSLTLTCTASGFSFNNNYYMCWVRQAPGKGLEWIGCISTDDSNTHYASWAQGRFTISKASSTALTLQVAGLTVADMATYFCARDAHFTSYGYGFDLWGPGTLVTVSS
VL 2: DIVMTQTPASVSAAVGGTVSINCRASEDIENLVAWYQQKPGQPPKLLIYQASKLASGVPSRFKGSGSGAEFTLTIGDLESADAATYYCQGDYGSGWIMYSFGGGTDLVVK
notes: CrossMab: 1A4 arm VH/VL crossed, 2F6 arm non-crossed with CH1/CL charge modifications, knobs-into-holes, human IgG1 with L234A, L235A, P329G; also called CCL2-0054; P1AA3459
[12]
  binding result: binds

B4: 1A4//2F6-WT IgG1 (bispecific antibody, V domains shown)
VH 1: QSLEESGGDLVKPGASLTLTCTASELDFYWICWVRQAPGKGLEWIACIGAGSSGSTYYASWAKGRFTVSKTSSTTVTLQMTSLTAADTATYFCARTGTEFTYYSLWGPGTLVTVSS
VL 1: ALVMTQTPSSVSAAVGGTVTINCQASQSVYNNNMAWYQQKPGQPPKLLIYTASSLASGVPSHFRGSGSGTQFTLTISDLESDDAATYYCAGYKSYSNDEYGFGGGTEVVVK
VH 2: QSLEESGGGLVQPEGSLTLTCTASGFSFNNNYYMCWVRQAPGKGLEWIGCISTDDSNTHYASWAQGRFTISKASSTALTLQVAGLTVADMATYFCARDAHFTSYGYGFDLWGPGTLVTVSS
VL 2: DIVMTQTPASVSAAVGGTVSINCRASEDIENLVAWYQQKPGQPPKLLIYQASKLASGVPSRFKGSGSGAEFTLTIGDLESADAATYYCQGDYGSGWIMYSFGGGTDLVVK
notes: CrossMab: 1A4 arm VH/VL crossed, 2F6 arm non-crossed with CH1/CL charge modifications, knobs-into-holes, human IgG1 wild type Fc; also called CCL2-0057; P1AA3400
[12]
  binding result: binds
